Experimental data published in publication PMC2175135.

Target: LexA-tpr-met-Gab1Cter Y473F Y590F (two-hybrid bait) (UniProt Q9QYY0)
Test: two-hybrid

- percent of the interaction with Gab1Cter: 25%
Substance: COOH-terminal SH2 domain of p85α PI(3)K (two-hybrid prey) (from UniProt P26450 624-718) (domain or fragment)
